{"source": "the DeepSol protein solubility set"}
{"experiment": "soluble on expression in E. coli; label from the status in PepcDB or PDB records"}
{"sequence": "MDSHVGEVDIFQQCKYIHEVELVNMKLQMRILETHIETKDRLLRNLEDIIDEQESRIANMEDFIQGRATSYTNRSNMLKGISVLSLDFGNLSEENLRLKNALSQMQKVARVNELLETDEDYESDMTSNEDRFALSRDSSCSVPRSVSPQPTGDVIKPYPQMVQSMREEGHWKKLQRCAEELKTEKDELKRLALDTKDAFNVCMAEMRMMLTSKTTDFFRVLIERYKAEMEKRKQLHNQLVELNGNIRVFYRIRPQLASETDNQKPVVVIDEMDNGVVHVSNTTGTRKTSAGADKVIPTDFSQDQIFNEVSPIITSCIDGYNVCIFAYGHTGSGKTYTMDGPVTMPGINQRAIMQLFETAKERTGDIKYDIKVAMMEIYNEKIRDLLNTSNTNLAIRQTEEGRSSIPGLEEVSVNSAEEVTETLARGRKNKAVAATEANIESSRSHVIVRVLVSATNLITKATTVGRLNLVDLAGSERVSQTNATGQLLKEAQAINKSLSELGNVVLALRQNQKHIPFRNCQLTRILEDSLNGDSKTLVIVHLSPDAKSLNESISSVNFAEKIGQVFTKSGTMKREPTRRSMTGISSGQRREIPASPRK", "soluble on expression in E. coli": "soluble"}
{"sequence": "TPRGYTTWVNTIQTNGLLNEASQNLFGILSVDCTSEEMNAFLDVVPGQAGQKQILLDAIDKIADDWDNRHPLPNAPLVAPPQGPIPMTARFIRGLGVPRERQMEPAFDQFRQTYRQWIIEAMSEGIKVMIGKPKAQNIRQGAKEPYPEFVDRLLSQIKSEGHPQEISKFLTDTLTIQNANEECRNAMRHLRPEDTLEEKMYACRDIG", "soluble on expression in E. coli": "soluble"}
{"sequence": "MEPSSLELPADTVQRIAAELKCHPTDERVALHLDEEDKLRHFRECFYIPKIQDLPPVDLSLVNKDENAIYFLGNSLGLQPKMVKTYLEEELDKWAKIAAYGHEVGKRPWITGDESIVGLMKDIVGANEKEIALMNALTVNLHLLMLSFFKPTPKRYKILLEAKAFPSDHYAIESQLQLHGLNIEESMRMIKPREGEETLRIEDILEVIEKEGDSIAVILFSGVHFYTGQHFNIPAITKAGQAKGCYVGFDLAHAVGNVELYLHDWGVDFACWCSYKYLNAGAGGIAGAFIHEKHAHTIKPALVGWFGHELSTRFKMDNKLQLIPGVCGFRISNPPILLVCSLHASLEIFKQATMKALRKKSVLLTGYLEYLIKHNYGKDKAATKKPVVNIITPSHVEERGCQLTITFSVPNKDVFQELEKRGVVCDKRNPNGIRVAPVPLYNSFHDVYKFTNLLTSILDSAETKN", "soluble on expression in E. coli": "soluble"}
{"sequence": "MTFLDRTPDIILTMNEEGVIVSQNETARRVFGDVGGKIYSEICKDDTCSVGDRYYSMVAIKGFRRTIVVGRDITERIRLEKELEDRERKFKALAELSPAGILVHHQGTILFVNEALCQIHGYTREELLNRKVWDLIHPDYHDLARAMMQKRLEGEKPVYELKTIRKDGSERWVLVAGGAIDWDGKKSVMAFAIDITDKKMIEQRLAEREELFRSIFNISPAGLYILVGGKFKLVNPAFERITGYSAEELVGMKSLEIVAEEDREFVRRKAIEMLKGRETEPYKYRVVRKDGKIRWVYENVASIAYEGERAALGSVIDITEIEEERKRLEELTSMLELINKTLRHDVLNALTSAMALLEMGIEESNKDYLNKALTSINRAVSIVRNMRAFEDAVKSGELRCIDVGELVSEVAKSFENVSVKGEGRALADEGLRSVVENIVNNAFIHSGTDRVEITVSEGKEWCEIRIADFGIGIPDEIKQRIFEEGFKYGKAAQTGLGLFIARKIVERYAGEIWVEDNEPKGSVFVIRLKKC", "soluble on expression in E. coli": "not soluble"}
{"sequence": "SERTQSSNMETRLDAMKELAKLSADVTFATEFINMDGIIVLTRLVESGTKLLSHYSEMLAFTLTAFLELMDHGIVSWDMVSITFIKQIAGYVSQPMVDVSILQRSLAILESMVLNSQSLYQKIAEEITVGQLISHLQVSNQEIQTYAIALINALFLKAPEDKRQDMANAFAQKHLRSIILNHVIRGNRPIKTEMAHQLYVLQVLTFNLLEERMMTKMDPNDQAQRDIIFELRRIAFDAESDPSNAPGSGTEKRKAMYTKDYKMLGFTNHINPAMDFTQTPPGMLALDNMLYLAKVHQDTYIRIVLENSSREDKHECPFGRSAIELTKMLCEILQVGELPNEGRNDYHPMFFTHDRAFEELFGICIQLLNKTWKEMRATAEDFNKVMQVVREQITRALPSKPNSLDQFKSKLRSLSYSEILRLRQSERMSQDDFQSPPIVELREKIQPEILELIKQQRLNRLCEGSSFRKIGNRRRQERFWYCRLALNHKVLHYGDLDDNPQGEVTFESLQEKIPVADIKAIVTGKDCPHMKEKSALKQNKEVLELAFSILYDPDETLNFIAPNKYEYCIWIDGLSALLGKDMSSELTKSDLDTLLSMEMKLRLLDLENIQIPEAPPPIPKEPSSYDFVYHYG", "soluble on expression in E. coli": "not soluble"}
{"sequence": "MGQQLLSHQSVSSQWLANQSATSTLPLLDLSLLSGSDTERQAFLTALRHAARDVGFFYLTGHGIDTSLLRQIQILSRQFFALSDEEKLSIAMIRSPHFRGYNRAASEFTRGQPDWREQFDIGAERTPLPQIAGAPSWTRLQGPNQWPTALPELKPVLLQWQEEMTRMSLRLLRAFALALDLDEQAFDALYGDKPNEHIKLIRYPGREATQSGQGVGAHKDSGFLSFLLQDTQRGLQVEVEEGQWIDAVPREGTFVVNIGELLELASNGYLRATVHRVETPPAGIDRLSIAFFLGARLDAVVPLYPLSAALAAEARGPASDPHNPLFRDVGLNYLKGRLRSHPDVAERYYSDALCS", "soluble on expression in E. coli": "not soluble"}
{"sequence": "MKFGNFLLTYQPPELSQTEVMKRLVNLGKASEGCGFDTVWLLEHHFTEFGLLGNPYVAAAHLLGATETLNVGTAAIVLPTAHPVRQAEDVNLLDQMSKGRFRFGICRGLYDKDFRVFGTDMDNSRALMDCWYDLMKEGFNEGYIAADNEHIKFPKIQLNPSAYTQGGAPVYVVAESASTTEWAAERGLPMILSWIINTHEKKAQLDLYNEVATEHGYDVTKIDHCLSYITSVDHDSNRAKDICRNFLGHWYDSYVNATKIFDDSDQTKGYDFNKGQWRDFVLKGHKDTNRRIDYSYEINPVGTPEECIAIIQQDIDATGIDNICCGFEANGSEEEIIASMKLFQSDVMPYLKEKQ", "soluble on expression in E. coli": "soluble"}
{"sequence": "VQFQEYVFLQFLGLDKAPSPQKFQPVPYILKKIFQDREAAATTGVSRDLCYVKELGVRGNVLRFLPDQGFFLYPKKISQASSCLQKLLYFNLSAIKEREQLTLAQLGLDLGPNSYYNLGPELELALFLVQEPHVWGQTTPKPGKMFVLRSVPWPQGAVHFNLLDVAKDWNDNPRKNFGLFLEILVKEDRDSGVNFQPEDTCARLRCSLHASLLVVTLNPDQCHPSRKRRAAIPVPKLSCKNLCHRHQLFINFRDLGWHKWIIAPKGFMANYCHGECPFSLTISLNSSNYAFMQALMHAVDPEIPQAVCIPTKLSPISMLYQDNNDNVILRHYEDMVVDECGCG", "soluble on expression in E. coli": "soluble"}
{"sequence": "MTVELKNEYLTVLINEAGAELSSVKSSDGIEYMWQADKTFWGRHAPVLFPIVGRLKDDQYTVAGQAYHMGQHGFARDNDFTVVNQTATQATFELTDSRATREMYPYAFRLRLIYTLTDHELTVNYNVHNPANQELLFSVGGHPAFNVPLADPAGTLADYKITVAPRKVYAHIPLQAPLNDAANADDFDLTKPLALSRDLFKDDALILDLNHHETTLMLDTDLDDHGVAMTIEDAPYVGMWSPYPAEAPFVCLEPWWGIADNVDSDGQLSHKMGINRLAANQTFDAKYAISFFLEHHHHHH", "soluble on expression in E. coli": "not soluble"}
{"sequence": "MDGDIIDQYRFPSPHPGIDVFFVTYMSQGLKVKGFLAAPKRKGVYDGFLYLRGGIKNVGQVRVPRLVQFASQGFVVFAPLYRGNGGGEGNEDFAGDDRYDALAGFHLLRRHPLVHPGRVHMFGFSRGGAMALHAAVMAEGVCSVAVWGGVADLELTYWERPDLRRMMKRVIGGTPNKCPERYRHRTPLYHLERLKAPVLIIHGGRDENVSIEHAWRLERRLKQLGKPVTAWYFPEFTHYFPPQANRETVQRLTEWMKQQPTM", "soluble on expression in E. coli": "not soluble"}
{"sequence": "ASMTGGQQMGRGSGSEFMENETHYAEAVIDNGAFGTRTIRFETGRLARQAAGSAVAYLDDDTMVLSATTASKNPKDQLDFFPLTVDVEERMYAAGKIPGSFFRREGRPSEDAILTCRLIDRPLRPSFKKGLRNEIQVVATIMALNPDHLYDVVAINAASASTQLAGLPFSGPIGGVRVALIRGQWVAFPTHTELEDAVFDMVVAGRVLEDGDVAIMMVEAEATEKTIQLVKDGAEAPTEEVVAAGLDAAKPFIKVLCKAQADLAAKAAKPTGEFPVFLDYQDDVLEALSAAVRPELSAALTIAGKQDREAELDRVKALAAEKLLPEFEGREKEISAAYRALTKSLVRERVIAEKKRIDGRGVTDIRTLAAEVEAIPRVHGSALFERGETQILGVTTLNMLRMEQQLDTLSPVTRKRYMHNYNFPPYSVGETGRVGSPKRREIGHGALAERAIVPVLPTREEFPYAIRQVSEALGSNGSTSMGSVCASTMSLLNAGVPLKAPVAGIAMGLISQEINGETHYVALTDILGAEDAFGDMDFKVAGTKEFVTALQLDTKLDGIPASVLAAALKQARDARLHILDVMMEAIDTPDEMSPNAPRIITVKIPVDKIGEVIGPKRQMINQIQEDTGAEITIEDDGTIYIGAADGPAAEAARATINGIANPTSPEVGERILGSVVKTTTFGAFVSLLPGKDGLLHISQIRKLAGGKRVENVEDVLGVGQKVQVEIAEIDSRGKLSLIPVIEGEEAASDEKKDDAEQ", "soluble on expression in E. coli": "soluble"}
{"sequence": "GWQAFKNDATEIIPELGEYPEPPPELENNKTMNRAENGGRPPHHPFETKDVSEYSCRELHFTRYVTDGPCRSAKPVTELVCSGQCGPARLLPNAIGRGKWWRPSGPDFRCIPDRYRAQRVQLLCPGGEAPRARKVRLVASCKCKRLTRFHNQSELKDFGTEAARPQKGRKPRPRARSAKANQAELENAY", "soluble on expression in E. coli": "soluble"}
{"sequence": "MSLVAVRSAHINKAGEFDPEKWIASLGITSQKSCECLAETWAYCLQQTQGHPDASLLLWRGVEMVEILSTLSMDIDTLRAALLFPLADANVVSEDVLRESVGKSVVNLIHGVRDMAAIRQLKATHTDSVSSEQVDNVRRMLLAMVDDFRCVVIKLAERIAHLREVKDAPEDERVLAAKECTNIYAPLANRLGIGQLKWELEDYCFRYLHPTEYKRIAKLLHERRLDREHYIEEFVGHLRAEMKAEGVKAEVYGRPKHIYSIWRKMQKKNLAFDELFDVRAVRIVAERLQDCYAALGIVHTHYRHLPDEKDDYVANPKPNGYQSIHTVVLGPGGKTVEIQIRTKQMHEDAELGVAAHWKYKEGAAAGGARSGHEDRIAWLRKLIAWQEEMADSGEMLDEVRSQVFDDRVYVFTPKGDVVDLPAGSTPLDFAYHIHSDVGHRCIGAKIGGRIVPFTYQLQMGDQIEIITQKQPNPSRDWLNPNLGYVTTSRGRSKIHAWFRKQDRDKNILAGRQILDDELEHLGISLKEAEKHLLPRYNFNDVDELLAAIGGGDIRLNQMVNFLQSQFNKPSAEEQDAAALKQLQQKSYTPQNRSKDNGRVVVEGVGNLMHHIARCCQPIPGDEIVGFITQGRGISVHRADCEQLAELRSHAPERIVDAVWGESYSAGYSLVVRVVANDRSGLLRDITTILANEKVNVLGVASRSDTKQQLATIDMTIEIYNLQVLGRVLGKLNQVPDVIDARRLHGSEGHHHHHH", "soluble on expression in E. coli": "not soluble"}
